Here are results for one molecule from patent publication US20070286858A1.

The assay concerns the target murine RAGE-Fc (mouse) (UniProt Q62151). The assay can be described thus: method not given.

Sequence of murine RAGE-Fc (mouse) (Q62151 other isoform, or with tags, fused parts or gaps, form in doubt): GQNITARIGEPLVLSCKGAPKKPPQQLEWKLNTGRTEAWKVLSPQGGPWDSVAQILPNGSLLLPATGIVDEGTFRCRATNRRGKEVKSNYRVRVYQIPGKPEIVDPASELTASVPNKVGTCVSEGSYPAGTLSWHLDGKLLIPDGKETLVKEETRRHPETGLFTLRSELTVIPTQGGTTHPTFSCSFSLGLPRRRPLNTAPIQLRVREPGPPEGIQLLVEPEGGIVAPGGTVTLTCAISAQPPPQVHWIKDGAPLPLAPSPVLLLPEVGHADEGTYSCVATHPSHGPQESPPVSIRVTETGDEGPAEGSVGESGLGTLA

B1: XT-M4 (antibody, rat IgG2b, V domains shown)
VH: EVQLVESGGGLVQPGRSLKLSCVVSGFTFNNYWMTWIRQTPGKGLEWVASINNSGDNTYYPDSVKDRFTISRDNAKSTLYLQMNSLRSEDTATYYCTRGGDITTGFDYWGQGVMVTVSS
VL: DIQMTQSPSSMSVSLGDTITITCRASQDVGIYVNWFQQKPGKSPRRMIYRATNLADGVPSRFSGSRSGSIYSLTISSLESEDVADYHCLEFDEHPLTFGSGTKVEIK
The molecule B1 registered a Kd of 0.3 nM. This counts as sub-nanomolar.

Broadly, the Kd is the equilibrium constant for the complex coming apart. Read a high Kd as weaker binding.
